{
  "source": "patent US20060205037A1",
  "about": "(published 2006)",
  "binders": {"B1": {"name": "pREX0558: GLP-1 (7-37;A8G;G22E;K34A) fused to the N-terminus of transferrin with PEAPTD and IgG hinge linkers (other)", "chain": "HGEGTFTSDVSSYLEEQAAKEFIAWLVAGRGPEAPTDVEPKSSDKTHTSPPSPAPELLGGPSVPDKTVRWCAVSEHEATKCQSFRDHMKSVIPSDGPSVACVKKASYLDCIRAIAANEADAVTLDAGLVYDAYLAPNNLKPVVAEFYGSKEDPQTFYYAVAVVKKDSGFQMNQLRGKKSCHTGLGRSAGWNIPIGLLYCDLPEPRKPLEKAVANFFSGSCAPCADGTDFPQLCQLCPGCGCSTLNQYFGYSGAFKCLKDGAGDVAFVKHSTIFENLANKADRDQYELLCLDNTRKPVDEYKDCHLAQVPSHTVVARSMGGKEDLIWELLNQAQEHFGKDKSKEFQLFSSPHGKDLLFKDSAHGFLKVPPRMDAKMYLGYEYVTAIRNLREGTCPEAPTDECKPVKWCALSHHERLKCDEWSVNSVGKIECVSAETTEDCIAKIMNGEADAMSLDGGFVYIAGKCGLVPVLAENYNKADNCEDTPEAGYFAVAVVKKSASDLTWDNLKGKKSCHTAVGRTAGWNIPMGLLYNKINHCRFDEFFSEGCAPGSKKDSSLCKLCMGSGLNLCEPNNKEGYYGYTGAFRCLVEKGDVAFVKHQTVPQNTGGKNPDPWAKNLNEKDYELLCLDGTRKPVEEYANCHLARAPNHAVVTRKDKEACVHKILRQQQHLFGSNVADCSGNFCLFRSETKDLLFRDDTVCLAKLHDRNTYEKYLGEEYVKAVGNLRKCSTSSLLEACTFRRP"}},
  "target": "T1, rat GLP-1 receptor (CHO cells transfected with the rat GLP-1 receptor) (rat, UniProt P32301 22-463)",
  "T1 sequence (looked up)": "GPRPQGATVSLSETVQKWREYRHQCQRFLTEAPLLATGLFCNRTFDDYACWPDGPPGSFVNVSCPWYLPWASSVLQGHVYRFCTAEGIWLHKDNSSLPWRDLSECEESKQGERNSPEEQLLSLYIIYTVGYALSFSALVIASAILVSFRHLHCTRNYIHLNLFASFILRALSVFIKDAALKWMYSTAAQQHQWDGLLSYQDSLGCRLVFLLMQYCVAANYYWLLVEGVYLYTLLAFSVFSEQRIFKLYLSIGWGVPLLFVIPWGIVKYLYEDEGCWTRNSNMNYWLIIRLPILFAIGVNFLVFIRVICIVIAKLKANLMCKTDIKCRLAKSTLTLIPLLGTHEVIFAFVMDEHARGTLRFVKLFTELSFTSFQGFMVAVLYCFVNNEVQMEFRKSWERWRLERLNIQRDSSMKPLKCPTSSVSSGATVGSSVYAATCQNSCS",
  "experiment": "cell-based or functional assay",
  "data": [
    {"binder": "B1", "values": [
      {"measurement": "cAMP assay EC50 (fermentation F0191)", "value": 5.9, "unit": "nM"}
    ]}
  ]
}
